Article PMC12278311, “PNUTS:PP1 recruitment to Tox4 regulates chromosomal dispersal in Drosophila germline development” (Cell reports, 2025)

Legend:
Conditions in all cases: both partners purified
[1] = molecular target: T1, PNUTS N-terminal domain (TND), rat, residues 5-160, C48S (rat, C48S); test: ITC; Tox4 titrated into PNUTS; Affinity-ITC, 25 °C; 20 mM Tris pH 8.5, 150 mM NaCl, 0.1 mM ZnSO4, 0.5 mM TCEP; one-site model assuming 1:1 stoichiometry; 3 replicates
T1 construct: PP1 nuclear targeting subunit (PNUTS, PPP1R10), rat, residues 5-160; Cloned in pRP1b; His6 tag cleaved with TEV protease; also called PNUTS C48S; PNUTS5-160 C48S; source: E. coli BL21 (DE3), purified (HisTrap, TEV cleavage, Ni-NTA flow-through, SEC)
T1 chain: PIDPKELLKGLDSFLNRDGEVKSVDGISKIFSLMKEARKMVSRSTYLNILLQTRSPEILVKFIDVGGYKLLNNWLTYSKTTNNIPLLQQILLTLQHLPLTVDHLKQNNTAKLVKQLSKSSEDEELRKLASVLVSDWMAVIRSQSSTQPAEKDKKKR

[2] = molecular target: T2, PNUTS TND (rat PNUTS 5-160, C48S) (rat, UniProt O55000 5-160, C48S); test: NMR titration; 2D [1H,15N] HSQC of 15N-labelled PNUTS with zinc-loaded Tox4 at a 1:2 molar ratio; 20 mM MES pH 6, 150 mM NaCl, 5 mM DTT; 298 K
T2 construct: PNUTS (PPP1R10), rat, N-terminal TFIIS domain, residues 5-160; cloned in pRP1b; 15N-labelled for NMR; also called PNUTS N-terminal domain; PNUTS NTD; source: E. coli BL21 (DE3), purified (HisTrap, TEV cleavage, Ni-NTA flow-through, SEC)
T2 sequence (looked up): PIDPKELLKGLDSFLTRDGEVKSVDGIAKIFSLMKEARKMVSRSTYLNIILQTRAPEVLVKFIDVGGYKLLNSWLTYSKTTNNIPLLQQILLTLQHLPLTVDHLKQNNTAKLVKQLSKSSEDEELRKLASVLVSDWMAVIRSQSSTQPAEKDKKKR

[3] = molecular target: T2, PNUTS TND (rat PNUTS 5-160, C48S); test: ITC; Tox4 titrated into PNUTS at 25°C; 20 mM Tris pH 8.5, 150 mM NaCl, 0.1 mM ZnSO4, 0.5 mM TCEP; one-site model assuming 1:1

B1: Tox4 C-terminal domain, human, residues 571-621, C601S (domain or fragment)
chain: RCVRSGCENPPIVSKDWDNEYCSNECVVKHSRDVFLAWVASRNSNTVVFVK
notes: TOX4, human, residues 571-621; Cloned in pTHMT (His6-MBP-TEV site); also called TOX4 C601S; Tox4571-621 C601S; source: E. coli BL21 (DE3) with 0.1 mM ZnSO4, purified (HisTrap, TEV cleavage, Ni-NTA and amylose resin, SEC); not shown: His6, N-terminal, cleaved; MBP, N-terminal, cleaved
[1]
  Kd: 300 ± 200 pM

B2: Tox4 CTD (human Tox4 571-621) (domain or fragment, UniProt O94842 571-621, looked up)
chain: RCVRSGCENPPIVSKDWDNEYCSNECVVKHCRDVFLAWVASRNSNTVVFVK
notes: TOX4, human, C-terminal domain, residues 571-621; also called Tox4 C-terminal domain; zinc-loaded Tox4; source: E. coli BL21 (DE3) with 0.1 mM ZnSO4, purified (HisTrap, TEV cleavage, amylose resin, SEC); not shown: His6, N-terminal, cleaved; MBP, N-terminal, cleaved
[2]
  binding result: binds

B3: Tox4 CTD (human Tox4 571-621, C601S) (domain or fragment, UniProt O94842 571-621, looked up)
chain: RCVRSGCENPPIVSKDWDNEYCSNECVVKHSRDVFLAWVASRNSNTVVFVK
notes: TOX4, human, C-terminal domain, residues 571-621; also called Tox4_(C601S); source: E. coli BL21 (DE3) with 0.1 mM ZnSO4, purified (HisTrap, TEV cleavage, amylose resin, SEC); not shown: His6, N-terminal, cleaved; MBP, N-terminal, cleaved
[3]
  Kd: 300 pM
